For four molecules, Ki results are on record in patent US20060211610A1 (IPSEN PHARMA S A S, published 2006).

Non-standard residues stand in square brackets, D forms with d. Phe(3,4,5-F3) = N[C@@H](Cc1cc(F)c(F)c(F)c1)C(=O)O; Ac6c = NC1(C(=O)O)CCCCC1

Experiment [1] deals with T1, Y1 receptor (human, UniProt P25929 1-384).
T1 construct: whole, on cells; Assayed as membrane homogenates of SK-N-MC cells, not intact cells; also called NPY Y1
T1 sequence (looked up): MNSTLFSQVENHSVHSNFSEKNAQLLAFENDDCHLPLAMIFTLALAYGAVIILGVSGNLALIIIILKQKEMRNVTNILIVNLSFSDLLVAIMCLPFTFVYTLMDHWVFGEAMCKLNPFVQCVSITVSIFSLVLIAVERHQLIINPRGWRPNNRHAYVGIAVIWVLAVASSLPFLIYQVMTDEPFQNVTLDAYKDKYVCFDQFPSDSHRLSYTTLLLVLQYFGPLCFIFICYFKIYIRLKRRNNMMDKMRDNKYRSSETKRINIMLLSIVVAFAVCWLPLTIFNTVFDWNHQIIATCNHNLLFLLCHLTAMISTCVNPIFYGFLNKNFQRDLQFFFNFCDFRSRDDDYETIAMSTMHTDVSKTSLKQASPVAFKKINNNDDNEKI
As to the kind of experiment: radioligand competition against [125I-Leu31,Pro34]PYY, SK-N-MC membranes, Cheng-Prusoff.
Method: (§1) The final pellets were resuspended in approximately 20 ml of 50 mM Tris-HCl containing 5.0 mM MgCl₂, 0.1 mg/ml bacitracin, and 0.1% BSA (Buffer B), and held on ice for the receptor binding assay.
(§2) For assay, aliquots (0.4 ml) of the foregoing suspensions were incubated with 0.05 ml of 0.05 nM [¹²⁵I-Leu³¹, Pro³⁴]PYY (Y1 receptor) or [¹²⁵I]PYY(3-36) (Y2 receptor), (each ˜2200 Ci/mmol, New England Nuclear) in Buffer B, with or without 0.05 ml a solution (ranging from 0.01 nM -1000 nM) of an unlabeled competing peptide. After a 120 min incubation (25° C.), the bound radioligand was separated from the free by rapid filtration through GF/C filters, previously soaked in 0.3% polyethyleneimine. […] Inhibition constants (K₁,) were calculated using the well-known Cheng-Prusoff equation.

Experiment [2] concerns the target T2, Y2 receptor (human, UniProt P49146 1-381).
T2 construct: whole, on cells; Assayed as membrane homogenates of SK-N-BE2 cells, not intact cells
T2 sequence (looked up): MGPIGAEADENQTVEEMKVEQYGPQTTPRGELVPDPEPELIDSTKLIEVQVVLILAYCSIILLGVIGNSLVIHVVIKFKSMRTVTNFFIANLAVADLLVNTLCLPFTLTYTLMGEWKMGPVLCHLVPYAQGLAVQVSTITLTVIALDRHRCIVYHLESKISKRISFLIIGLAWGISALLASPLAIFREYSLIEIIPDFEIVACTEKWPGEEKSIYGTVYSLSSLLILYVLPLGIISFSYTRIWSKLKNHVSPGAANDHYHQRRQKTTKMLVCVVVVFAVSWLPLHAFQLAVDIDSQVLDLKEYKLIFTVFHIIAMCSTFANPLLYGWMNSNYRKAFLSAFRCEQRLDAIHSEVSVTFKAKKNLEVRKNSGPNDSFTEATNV
Nature of the experiment: radioligand competition against [125I]PYY(3-36), SK-N-BE2 membranes, Cheng-Prusoff. (In general: Displacement assays read how much labelled ligand stays bound in the presence of the test substance.)
Method: as §1, §2

Experiment [3] addresses T3, Y1 receptor (human), P25929.
T3 chain: T1 sequence (looked up)

For experiment [4], the target named is T4, Y2 receptor (human), P49146.
T4 chain: T2 sequence (looked up)

B1: Ac-[A6C^24, Leu^31]hPYY(24-36)NH2 (peptide)
peptide: Ac-[Ac6c]RHYLNLLTRQRY-NH2
SMILES: CC(=O)NC1(C(=O)N[C@@H](CCCNC(=N)N)C(=O)N[C@@H](Cc2c[nH]cn2)C(=O)N[C@@H](Cc2ccc(O)cc2)C(=O)N[C@@H](CC(C)C)C(=O)N[C@@H](CC(N)=O)C(=O)N[C@@H](CC(C)C)C(=O)N[C@@H](CC(C)C)C(=O)N[C@H](C(=O)N[C@@H](CCCNC(=N)N)C(=O)N[C@@H](CCC(N)=O)C(=O)N[C@@H](CCCNC(=N)N)C(=O)N[C@@H](Cc2ccc(O)cc2)C(N)=O)[C@@H](C)O)CCCCC1
notes: Also carries Leu at 31 (residue 8 of the peptide), already in the entry
With B1, the Ki (in general, the dissociation constant of the complex between target and ligand, obtained from inhibition or displacement) in experiment [1] was under 2000 nM; in experiment [2], under 1000 nM.

B2: Ac-[A6C^31]hPYY(24-36)NH2 (peptide)
peptide: Ac-LRHYLNL[Ac6c]TRQRY-NH2
SMILES: CC(=O)N[C@@H](CC(C)C)C(=O)N[C@@H](CCCNC(=N)N)C(=O)N[C@@H](Cc1c[nH]cn1)C(=O)N[C@@H](Cc1ccc(O)cc1)C(=O)N[C@@H](CC(C)C)C(=O)N[C@@H](CC(N)=O)C(=O)N[C@@H](CC(C)C)C(=O)NC1(C(=O)N[C@H](C(=O)N[C@@H](CCCNC(=N)N)C(=O)N[C@@H](CCC(N)=O)C(=O)N[C@@H](CCCNC(=N)N)C(=O)N[C@@H](Cc2ccc(O)cc2)C(N)=O)[C@@H](C)O)CCCCC1
notes: Synthetic analog of human PYY(24-36)
For the molecule B2, the Ki in experiment [1] was under 2000 nM; in experiment [2], under 1000 nM.

B3: Ac-[A6C^28, Leu^31]hPYY(24-36)NH2 (peptide)
peptide: Ac-LRHY[Ac6c]NLLTRQRY-NH2
SMILES: CC(=O)N[C@@H](CC(C)C)C(=O)N[C@@H](CCCNC(=N)N)C(=O)N[C@@H](Cc1c[nH]cn1)C(=O)N[C@@H](Cc1ccc(O)cc1)C(=O)NC1(C(=O)N[C@@H](CC(N)=O)C(=O)N[C@@H](CC(C)C)C(=O)N[C@@H](CC(C)C)C(=O)N[C@H](C(=O)N[C@@H](CCCNC(=N)N)C(=O)N[C@@H](CCC(N)=O)C(=O)N[C@@H](CCCNC(=N)N)C(=O)N[C@@H](Cc2ccc(O)cc2)C(N)=O)[C@@H](C)O)CCCCC1
notes: as for B1
B3: the Ki in experiment [1] is under 2000 nM; in experiment [2], under 1000 nM.

B4: Ac-[(3,4,5-F)Phe^27]hPYY(22-36)NH2 (peptide)
peptide: Ac-ASLRH[Phe(3,4,5-F3)]LNLVTRQRY-NH2
SMILES: CC(=O)N[C@@H](C)C(=O)N[C@@H](CO)C(=O)N[C@@H](CC(C)C)C(=O)N[C@@H](CCCNC(=N)N)C(=O)N[C@@H](Cc1c[nH]cn1)C(=O)N[C@@H](Cc1cc(F)c(F)c(F)c1)C(=O)N[C@@H](CC(C)C)C(=O)N[C@@H](CC(N)=O)C(=O)N[C@@H](CC(C)C)C(=O)N[C@H](C(=O)N[C@H](C(=O)N[C@@H](CCCNC(=N)N)C(=O)N[C@@H](CCC(N)=O)C(=O)N[C@@H](CCCNC(=N)N)C(=O)N[C@@H](Cc1ccc(O)cc1)C(N)=O)[C@@H](C)O)C(C)C
Consider B4, for which the Ki was under 2000 nM in experiment [3] and under 1000 nM in experiment [4].
